Test results as given in patent US20160272683A1 (Novo Nordisk, published 2016).
* marks the point of attachment. C18 diacid = O=C(O)CCCCCCCCCCCCCCCCC(=O)*

T1: human calcitonin receptor (human, UniProt P30988 25-474)
T1 sequence (looked up): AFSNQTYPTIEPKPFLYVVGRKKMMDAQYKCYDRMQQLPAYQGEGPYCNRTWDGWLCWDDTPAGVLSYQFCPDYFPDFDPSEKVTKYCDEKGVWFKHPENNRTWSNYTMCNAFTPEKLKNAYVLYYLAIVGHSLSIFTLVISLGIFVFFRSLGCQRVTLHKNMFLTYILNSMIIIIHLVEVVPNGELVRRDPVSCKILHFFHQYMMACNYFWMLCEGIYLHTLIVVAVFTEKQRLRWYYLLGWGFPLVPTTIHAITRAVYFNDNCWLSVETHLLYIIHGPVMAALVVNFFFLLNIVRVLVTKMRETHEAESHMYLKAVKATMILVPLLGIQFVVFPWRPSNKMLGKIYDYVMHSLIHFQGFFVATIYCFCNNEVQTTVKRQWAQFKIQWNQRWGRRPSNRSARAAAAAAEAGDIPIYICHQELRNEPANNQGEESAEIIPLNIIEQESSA

T2: human amylin 3(a) receptor (human calcitonin receptor co-expressed with RAMP-3) (human, UniProt P30988 25-474; O60896 24-148, limits assumed)
T2 sequence (looked up) 1: T1 sequence (looked up)
T2 sequence (looked up) 2: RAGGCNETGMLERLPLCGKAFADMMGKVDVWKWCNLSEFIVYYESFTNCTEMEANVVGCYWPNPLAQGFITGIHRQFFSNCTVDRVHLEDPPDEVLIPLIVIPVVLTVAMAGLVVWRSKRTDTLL

B1: [N-terminal(C18 diacid), 9L, 10A]mimylin (peptide)
peptide: {C18 diacid}-EASELSTALAGRLSAELHELATLPRTETGPESP-NH2
SMILES: CC(C)C[C@H](NC(=O)[C@H](C)NC(=O)[C@@H](NC(=O)[C@H](CO)NC(=O)[C@H](CC(C)C)NC(=O)[C@H](CCC(=O)O)NC(=O)[C@H](CO)NC(=O)[C@H](C)NC(=O)[C@H](CCC(=O)O)NC(=O)CCCCCCCCCCCCCCCCC(=O)O)[C@@H](C)O)C(=O)N[C@@H](C)C(=O)NCC(=O)N[C@@H](CCCNC(=N)N)C(=O)N[C@@H](CC(C)C)C(=O)N[C@@H](CO)C(=O)N[C@@H](C)C(=O)N[C@@H](CCC(=O)O)C(=O)N[C@@H](CC(C)C)C(=O)N[C@@H](Cc1c[nH]cn1)C(=O)N[C@@H](CCC(=O)O)C(=O)N[C@@H](CC(C)C)C(=O)N[C@@H](C)C(=O)N[C@H](C(=O)N[C@@H](CC(C)C)C(=O)N1CCC[C@H]1C(=O)N[C@@H](CCCNC(=N)N)C(=O)N[C@H](C(=O)N[C@@H](CCC(=O)O)C(=O)N[C@H](C(=O)NCC(=O)N1CCC[C@H]1C(=O)N[C@@H](CCC(=O)O)C(=O)N[C@@H](CO)C(=O)N1CCC[C@H]1C(N)=O)[C@@H](C)O)[C@@H](C)O)[C@@H](C)O
B2: [N-terminal(C18 diacid), 5V, 9V]mimylin (peptide)
peptide: {C18 diacid}-EASEVSTAVLGRLSAELHELATLPRTETGPESP-NH2
SMILES: CC(C)C[C@H](NC(=O)[C@H](CCC(=O)O)NC(=O)[C@H](Cc1c[nH]cn1)NC(=O)[C@H](CC(C)C)NC(=O)[C@H](CCC(=O)O)NC(=O)[C@H](C)NC(=O)[C@H](CO)NC(=O)[C@H](CC(C)C)NC(=O)[C@H](CCCNC(=N)N)NC(=O)CNC(=O)[C@H](CC(C)C)NC(=O)[C@@H](NC(=O)[C@H](C)NC(=O)[C@@H](NC(=O)[C@H](CO)NC(=O)[C@@H](NC(=O)[C@H](CCC(=O)O)NC(=O)[C@H](CO)NC(=O)[C@H](C)NC(=O)[C@H](CCC(=O)O)NC(=O)CCCCCCCCCCCCCCCCC(=O)O)C(C)C)[C@@H](C)O)C(C)C)C(=O)N[C@@H](C)C(=O)N[C@H](C(=O)N[C@@H](CC(C)C)C(=O)N1CCC[C@H]1C(=O)N[C@@H](CCCNC(=N)N)C(=O)N[C@H](C(=O)N[C@@H](CCC(=O)O)C(=O)N[C@H](C(=O)NCC(=O)N1CCC[C@H]1C(=O)N[C@@H](CCC(=O)O)C(=O)N[C@@H](CO)C(=O)N1CCC[C@H]1C(N)=O)[C@@H](C)O)[C@@H](C)O)[C@@H](C)O
B3: [N-terminal(C18 diacid), 3P, 9V]mimylin (peptide)
peptide: {C18 diacid}-EAPELSTAVLGRLSAELHELATLPRTETGPESP-NH2
SMILES: CC(C)C[C@H](NC(=O)[C@H](CCC(=O)O)NC(=O)[C@H](Cc1c[nH]cn1)NC(=O)[C@H](CC(C)C)NC(=O)[C@H](CCC(=O)O)NC(=O)[C@H](C)NC(=O)[C@H](CO)NC(=O)[C@H](CC(C)C)NC(=O)[C@H](CCCNC(=N)N)NC(=O)CNC(=O)[C@H](CC(C)C)NC(=O)[C@@H](NC(=O)[C@H](C)NC(=O)[C@@H](NC(=O)[C@H](CO)NC(=O)[C@H](CC(C)C)NC(=O)[C@H](CCC(=O)O)NC(=O)[C@@H]1CCCN1C(=O)[C@H](C)NC(=O)[C@H](CCC(=O)O)NC(=O)CCCCCCCCCCCCCCCCC(=O)O)[C@@H](C)O)C(C)C)C(=O)N[C@@H](C)C(=O)N[C@H](C(=O)N[C@@H](CC(C)C)C(=O)N1CCC[C@H]1C(=O)N[C@@H](CCCNC(=N)N)C(=O)N[C@H](C(=O)N[C@@H](CCC(=O)O)C(=O)N[C@H](C(=O)NCC(=O)N1CCC[C@H]1C(=O)N[C@@H](CCC(=O)O)C(=O)N[C@@H](CO)C(=O)N1CCC[C@H]1C(N)=O)[C@@H](C)O)[C@@H](C)O)[C@@H](C)O
B4: [N-terminal(C18 diacid), 9V, 10I]mimylin (peptide)
peptide: {C18 diacid}-EASELSTAVIGRLSAELHELATLPRTETGPESP-NH2
SMILES: CC[C@H](C)[C@H](NC(=O)[C@@H](NC(=O)[C@H](C)NC(=O)[C@@H](NC(=O)[C@H](CO)NC(=O)[C@H](CC(C)C)NC(=O)[C@H](CCC(=O)O)NC(=O)[C@H](CO)NC(=O)[C@H](C)NC(=O)[C@H](CCC(=O)O)NC(=O)CCCCCCCCCCCCCCCCC(=O)O)[C@@H](C)O)C(C)C)C(=O)NCC(=O)N[C@@H](CCCNC(=N)N)C(=O)N[C@@H](CC(C)C)C(=O)N[C@@H](CO)C(=O)N[C@@H](C)C(=O)N[C@@H](CCC(=O)O)C(=O)N[C@@H](CC(C)C)C(=O)N[C@@H](Cc1c[nH]cn1)C(=O)N[C@@H](CCC(=O)O)C(=O)N[C@@H](CC(C)C)C(=O)N[C@@H](C)C(=O)N[C@H](C(=O)N[C@@H](CC(C)C)C(=O)N1CCC[C@H]1C(=O)N[C@@H](CCCNC(=N)N)C(=O)N[C@H](C(=O)N[C@@H](CCC(=O)O)C(=O)N[C@H](C(=O)NCC(=O)N1CCC[C@H]1C(=O)N[C@@H](CCC(=O)O)C(=O)N[C@@H](CO)C(=O)N1CCC[C@H]1C(N)=O)[C@@H](C)O)[C@@H](C)O)[C@@H](C)O
B5: [N-terminal(C18 diacid), 5I, 9I]mimylin (peptide)
peptide: {C18 diacid}-EASEISTAILGRLSAELHELATLPRTETGPESP-NH2
SMILES: CC[C@H](C)[C@H](NC(=O)[C@H](C)NC(=O)[C@@H](NC(=O)[C@H](CO)NC(=O)[C@@H](NC(=O)[C@H](CCC(=O)O)NC(=O)[C@H](CO)NC(=O)[C@H](C)NC(=O)[C@H](CCC(=O)O)NC(=O)CCCCCCCCCCCCCCCCC(=O)O)[C@@H](C)CC)[C@@H](C)O)C(=O)N[C@@H](CC(C)C)C(=O)NCC(=O)N[C@@H](CCCNC(=N)N)C(=O)N[C@@H](CC(C)C)C(=O)N[C@@H](CO)C(=O)N[C@@H](C)C(=O)N[C@@H](CCC(=O)O)C(=O)N[C@@H](CC(C)C)C(=O)N[C@@H](Cc1c[nH]cn1)C(=O)N[C@@H](CCC(=O)O)C(=O)N[C@@H](CC(C)C)C(=O)N[C@@H](C)C(=O)N[C@H](C(=O)N[C@@H](CC(C)C)C(=O)N1CCC[C@H]1C(=O)N[C@@H](CCCNC(=N)N)C(=O)N[C@H](C(=O)N[C@@H](CCC(=O)O)C(=O)N[C@H](C(=O)NCC(=O)N1CCC[C@H]1C(=O)N[C@@H](CCC(=O)O)C(=O)N[C@@H](CO)C(=O)N1CCC[C@H]1C(N)=O)[C@@H](C)O)[C@@H](C)O)[C@@H](C)O
B6: [N-terminal(C18 diacid)]mimylin (peptide)
peptide: {C18 diacid}-EASELSTAALGRLSAELHELATLPRTETGPESP-NH2
SMILES: CC(C)C[C@H](NC(=O)[C@H](C)NC(=O)[C@H](C)NC(=O)[C@@H](NC(=O)[C@H](CO)NC(=O)[C@H](CC(C)C)NC(=O)[C@H](CCC(=O)O)NC(=O)[C@H](CO)NC(=O)[C@H](C)NC(=O)[C@H](CCC(=O)O)NC(=O)CCCCCCCCCCCCCCCCC(=O)O)[C@@H](C)O)C(=O)NCC(=O)N[C@@H](CCCNC(=N)N)C(=O)N[C@@H](CC(C)C)C(=O)N[C@@H](CO)C(=O)N[C@@H](C)C(=O)N[C@@H](CCC(=O)O)C(=O)N[C@@H](CC(C)C)C(=O)N[C@@H](Cc1c[nH]cn1)C(=O)N[C@@H](CCC(=O)O)C(=O)N[C@@H](CC(C)C)C(=O)N[C@@H](C)C(=O)N[C@H](C(=O)N[C@@H](CC(C)C)C(=O)N1CCC[C@H]1C(=O)N[C@@H](CCCNC(=N)N)C(=O)N[C@H](C(=O)N[C@@H](CCC(=O)O)C(=O)N[C@H](C(=O)NCC(=O)N1CCC[C@H]1C(=O)N[C@@H](CCC(=O)O)C(=O)N[C@@H](CO)C(=O)N1CCC[C@H]1C(N)=O)[C@@H](C)O)[C@@H](C)O)[C@@H](C)O
B7: [N-terminal(C18 diacid), 2P, 9V]mimylin (peptide)
peptide: {C18 diacid}-EPSELSTAVLGRLSAELHELATLPRTETGPESP-NH2
SMILES: CC(C)C[C@H](NC(=O)[C@H](CCC(=O)O)NC(=O)[C@H](Cc1c[nH]cn1)NC(=O)[C@H](CC(C)C)NC(=O)[C@H](CCC(=O)O)NC(=O)[C@H](C)NC(=O)[C@H](CO)NC(=O)[C@H](CC(C)C)NC(=O)[C@H](CCCNC(=N)N)NC(=O)CNC(=O)[C@H](CC(C)C)NC(=O)[C@@H](NC(=O)[C@H](C)NC(=O)[C@@H](NC(=O)[C@H](CO)NC(=O)[C@H](CC(C)C)NC(=O)[C@H](CCC(=O)O)NC(=O)[C@H](CO)NC(=O)[C@@H]1CCCN1C(=O)[C@H](CCC(=O)O)NC(=O)CCCCCCCCCCCCCCCCC(=O)O)[C@@H](C)O)C(C)C)C(=O)N[C@@H](C)C(=O)N[C@H](C(=O)N[C@@H](CC(C)C)C(=O)N1CCC[C@H]1C(=O)N[C@@H](CCCNC(=N)N)C(=O)N[C@H](C(=O)N[C@@H](CCC(=O)O)C(=O)N[C@H](C(=O)NCC(=O)N1CCC[C@H]1C(=O)N[C@@H](CCC(=O)O)C(=O)N[C@@H](CO)C(=O)N1CCC[C@H]1C(N)=O)[C@@H](C)O)[C@@H](C)O)[C@@H](C)O

What was measured:
[1] = molecular target: T1, human calcitonin receptor; assay: cell-based or functional assay
[2] = molecular target: T2, human amylin 3(a) receptor (human …); assay: cell-based or functional assay

| Binder | hCTR funct. EC50 (pM) [1] | hAmylin-R funct. EC50 (pM) [2] |
| --- | --- | --- |
| B1 | 4 pM | 8 pM |
| B2 | 14 pM | 20 pM |
| B3 | 7 pM | 10 pM |
| B4 | 6 pM | 7 pM |
| B5 | 7 pM | 10 pM |
| B6 | 5 pM | 8 pM |
| B7 | 7 pM | 8 pM |
